B1: TCN-537 (3194_D21) (antibody, V domains shown)
VH: QVQLQQWGSGLLKPSETLSLTCAVYGGSFRDDYWTWIRQPPGKGLEWIGEINHSGRTNYNPSLKSRVTISVDTSLKQFSLKVISVTAADTAVYYCARGTSHVSRYFDWLPPTNWFDPWGQGTQVTVSS
VL: DIVLTQSPGTLSLSPGERATLSCRASQSVSSSYLAWYQQKPGQAPRLVMYGAATRATGIPDRFSGSGSGPDFTLTISRLEPEDFAMYYCQQYGNSPITFGQGTRLEIK
B2: TCN-536 (5095_N01) (antibody, V domains shown)
VH: QVQLQQWGAGLLKPSETLSLTCAVYGGSFSVSGYYWSWIRQPPGRGLEWIGEISHGGSTNYNPSLKSRVTISVDTTKNQFSLRLSSVTAADTAVYYCARGTDPDTEVYCRVGNCAAFDYWGQGSLVTVSS
VL: EIILAQSPGTLSLSPGERATLSCRASQFVSTRSLAWYQQRPGQAPRLLIYGASSRATGIPDRFSGSGSGTDFTLTISRLEPEDFAVYYCQHYGYSPRYAFGQGSKVEIK
B3: TCN-532 (5262_H18) (antibody, V domains shown)
VH: QVQLQESGPGLVKPSETLSLTCTVSGGSVSSETYYWSWIRQPPGKGLEWIGYIYYIGNTDYRPSLKSRVTISLDTSKNQFSLKLSSVTAADTAVYYCARGAYYDSSGYPAFYIWGQGTMVTVSS
VL: QSVLTQPPSVSGAPGQRVTISCTGSSSNIGSDYDVHWYKQLPGTAPKLLIFGNSNRPSGVPDRFSGSKSGTSASLAITGLQAEDEADYYCQSYDSSLSGFHVFGSGTKVTVL
B4: TCN-563 (5237_B21) (antibody, V domains shown)
VH: QVQLAQSGAEVKRPGSSVKVSCTASGGIFRKNAISWVRQAPGQGLEWMGGIIAVFNTANYAQKFQGRVKITADESGNTAYMELSSLRSDDTAVYYCASHPKYFYGSGSYPDFWGQGTLVTVSS
VL: QSALTQPRSVSGSPGQSVTISCTGSSSDVGASNSVSWYQQHPGKAPKLVIYDVTERPSGVPHRFSGSKSGNTASLTVSGLQPEDEADYFCCAYGGKYLVVFGGGTKVTVL
B5: TCN-530 (5248_H10a) (antibody, V domains shown)
VH: QVQLVQSGAEVRKPGSSVKVSCKASGGPFMSYAIGWVRQAPGQGLEWMGGINPVFGRPHYAQKFQGRVTIATDDSTKTSYMELSSLTSEDTGMYYCASRYSRSSPGTFESWGQGTLVTVSS
VL: EIVMTQFPATLSVSPGERVTLSCRASQSVSNNLAWYQQKPGQPPRLLIYDASTRATGVPAKFSGTGSGTEFTLSISSLQSEDFAVYYCQQYHNWPPSYSFGLGTKLEIK
B6: TCN-552 (5249_I23) (antibody, V domains shown)
VH: QVQVVQSGAEVKKPGSSVRVSCQASGGTFMNYAIIWVRRAPGQGLEWMGGIIPVFPTPNYAQMFQGRVTISTDESRSTSFLELTNLRYEDTAVYYCARRIYHGGNSGFDFWGQGTLVTVSS
VL: EIVLTQSPATLSLSPGERATLSCRASQSVGNYLAWYQQKPGQAPRLLIYDSSNRAPGIPARFSGSGSGTDFTLTISSLAPEDFAVYYCQQRSKWPPMYSFGHGTKLEIK
B7: TCN-548 (5092_P01) (antibody, V domains shown)
VH: QVQLQESGPGLVKPSETLSLTCTVSSGPMSDYYWSWIRQPPGKGLEWIGHVSVSHGGRTKSNPSVMSRVTISVETSKNQFSLKLTSVTAADTAVYYCARLNYYDRSGYHSPDGPSNNWFDPWGQGTLVTVSS
VL: not shown
B8: TCN-549 (5092_P04) (antibody, V domains shown)
VH: QVQLVQSGAEVKKPGASVKVSCKASGYTFTGYYMHWVRQAPGQGLEWMGWINPNSGDTNYAQKFQGRVTMTRDTSITTAYMELSSLRSDDTAVYYCARDSPYSSSWSFFDYWGQGPLVTVSS
VL: not shown
B9: TCN-544 (5082_A19) (antibody, V domains shown)
VH: QVQLQESGPGLVKPSETLSLTCTVSRGSIGHYFWSWIRQPPGKGLEWIGYISYSGSTKYNPSLRSRVTISVDTSKNQFSLNLNSVTATDTALYYCAREDYDILTGAGPGMEVWGQGTTVTVSS
VL: QSMLTQPPSASGTPGQRVTISCSGSSSNIGSNTVNWFKHLPGTAPKLLIYRNDLRPSGVPDRFSGSKSGTSASLAISGLQSEDEADYYCATWDDSLNGFYVFGTGTKVTVL

Biological target: recombinant soluble homotrimeric HA of A/swine/Ontario/01911-2/99 (H4N6) (Influenza A virus A/Swine/Ontario/01911-2/99 (H4N6))
Assay: HA microarray, BCC supernatant
Conditions: remark: other sources report otherwise

Going from B1 to B2, the Trimeric HA Binding RLU rises from 19 RLU to 79 RLU.

Going from B3 to B4, the Trimeric HA Binding RLU rises from 119 RLU to 4500 RLU.

Biological target: recombinant soluble homotrimeric HA of A/Anhui/1/05 (H5N1) (Influenza A virus A/Anhui/1/2005 (H5N1))
Assay: HA microarray, BCC supernatant
Conditions: remark: other sources report otherwise

First: B5
Second: B6
The Trimeric HA Binding RLU of the first is higher: 11900 RLU for the first, 4160 RLU for the second.

B4 gave a Trimeric HA Binding RLU of 9580 RLU.

Biological target: recombinant soluble homotrimeric HA of A/Netherlands/219/03 (H7N7) (Influenza A virus A/Netherlands/219/03 (H7N7))
Assay: HA microarray, BCC supernatant
Conditions: remark: other sources report otherwise

First: B3
Second: B4
The Trimeric HA Binding RLU of the first is lower: 327 RLU for the first, 7520 RLU for the second.

Biological target: recombinant soluble homotrimeric HA of A/Egypt/3300-NAMRU3/08 (H5N1) (Influenza A virus A/Egypt/3300-NAMRU3/2008 (H5N1))
Assay: HA microarray, BCC supernatant
Conditions: remark: other sources report otherwise

First: B1
Second: B5
The Trimeric HA Binding RLU of the first is higher: 38200 RLU for the first, 30400 RLU for the second.

First: B6
Second: B4
The Trimeric HA Binding RLU of the first is higher: 40000 RLU for the first, 27500 RLU for the second.

Biological target: recombinant soluble homotrimeric HA of A/Vietnam/1203/04 (H5N1) (Influenza A virus A/Vietnam/1203/2004 (H5N1))
Assay: HA microarray, BCC supernatant
Conditions: remark: other sources report otherwise

Compared with B5, B6 is lower in Trimeric HA Binding RLU: 7150 RLU for the first, 2730 RLU for the second.

B4 was tested, and the Trimeric HA Binding RLU was 4840 RLU.

Biological target: recombinant soluble homotrimeric HA of A/California/4/09 (H1N1) (Influenza A virus A/California/04/2009 (H1N1))
Assay: HA microarray, BCC supernatant
Conditions: remark: other sources report otherwise

Going from B1 to B7, the Trimeric HA Binding RLU falls from 21900 RLU to 234 RLU.

Compared with B8, B2 is lower in Trimeric HA Binding RLU: 338 RLU for the first, 151 RLU for the second.

Going from B5 to B9, the Trimeric HA Binding RLU falls from 46600 RLU to 281 RLU.

Compared with B6, B4 is higher in Trimeric HA Binding RLU: 35300 RLU for the first, 45200 RLU for the second.

Biological target: recombinant soluble homotrimeric HA of A/chicken/Vietnam/NCVD-016/08 (H5N1) (Influenza A virus A/chicken/Vietnam/NCVD-016/2008 (H5N1))
Assay: HA microarray, BCC supernatant
Conditions: remark: other sources report otherwise

First: B1
Second: B7
The Trimeric HA Binding RLU of the first is higher: 8620 RLU for the first, 254 RLU for the second.

Compared with B8, B2 is lower in Trimeric HA Binding RLU: 498 RLU for the first, 287 RLU for the second.

Going from B3 to B5, the Trimeric HA Binding RLU rises from 46 RLU to 48300 RLU.

Going from B9 to B6, the Trimeric HA Binding RLU rises from 272 RLU to 46200 RLU.

B4 was tested, and the Trimeric HA Binding RLU was 41000 RLU.

Biological target: recombinant soluble homotrimeric HA of A/Wisconsin/67/05 (H3N2) (Influenza A virus A/Wisconsin/67/2005 (H3N2))
Assay: HA microarray, BCC supernatant
Conditions: remark: other sources report otherwise

Going from B1 to B8, the Trimeric HA Binding RLU rises from 549 RLU to 30900 RLU.

Compared with B2, B3 is lower in Trimeric HA Binding RLU: 35000 RLU for the first, 18000 RLU for the second.

Compared with B5, B6 is lower in Trimeric HA Binding RLU: 36800 RLU for the first, 14800 RLU for the second.

B4 gave a Trimeric HA Binding RLU of 40800 RLU.

Biological target: recombinant soluble homotrimeric HA of A/northern shoveler/California/HKWF115/2007 (H6N1) (Influenza A virus A/northern shoveler/California/HKWF115/2007 (H6N1))
Assay: HA microarray, BCC supernatant
Conditions: remark: other sources report otherwise

Compared with B1, B7 is lower in Trimeric HA Binding RLU: 5210 RLU for the first, 314 RLU for the second.

Going from B3 to B5, the Trimeric HA Binding RLU rises from 511 RLU to 45300 RLU.

Compared with B6, B4 is lower in Trimeric HA Binding RLU: 38400 RLU for the first, 27300 RLU for the second.

Biological target: recombinant soluble homotrimeric HA of A/duck/Yangzhou/02/2005 (H8N4) (Influenza A virus A/duck/Yangzhou/02/2005 (H8N4))
Assay: HA microarray, BCC supernatant
Conditions: remark: other sources report otherwise

First: B1
Second: B7
The Trimeric HA Binding RLU of the first is higher: 7830 RLU for the first, 184 RLU for the second.

Compared with B6, B4 is higher in Trimeric HA Binding RLU: 13100 RLU for the first, 46700 RLU for the second.

Biological target: recombinant soluble homotrimeric HA of A/Indonesia/5/05 (H5N1) (Influenza A virus A/Indonesia/5/2005 (H5N1))
Assay: HA microarray, BCC supernatant
Conditions: remark: other sources report otherwise

First: B1
Second: B5
The Trimeric HA Binding RLU of the first is lower: 14900 RLU for the first, 39800 RLU for the second.

First: B6
Second: B4
The Trimeric HA Binding RLU of the first is higher: 43600 RLU for the first, 39500 RLU for the second.

Biological target: recombinant soluble homotrimeric HA of A/Japan/305/57 (H2N2) (Influenza A virus A/Japan/305/1957 (H2N2))
Assay: HA microarray, BCC supernatant
Conditions: remark: other sources report otherwise

Going from B1 to B7, the Trimeric HA Binding RLU falls from 44700 RLU to 416 RLU.

Going from B8 to B2, the Trimeric HA Binding RLU falls from 387 RLU to 121 RLU.

Going from B3 to B5, the Trimeric HA Binding RLU rises from 176 RLU to 47000 RLU.

Going from B9 to B6, the Trimeric HA Binding RLU rises from 187 RLU to 23800 RLU.

B4 gave a Trimeric HA Binding RLU of 6610 RLU.

Biological target: recombinant soluble homotrimeric HA of A/Solomon Islands/3/06 (H1N1) (Influenza A virus A/Solomon Islands/3/2006 (H1N1))
Assay: HA microarray, BCC supernatant
Conditions: remark: other sources report otherwise

First: B7
Second: B8
The Trimeric HA Binding RLU of the first is lower: 283 RLU for the first, 284 RLU for the second.

Compared with B3, B5 is higher in Trimeric HA Binding RLU: 327 RLU for the first, 32800 RLU for the second.

Going from B9 to B6, the Trimeric HA Binding RLU rises from 179 RLU to 39300 RLU.

For B4, the Trimeric HA Binding RLU was 30000 RLU.

Biological target: recombinant soluble homotrimeric HA, A/northern shoveler/California/HKWF115/2007 (H6N1) (influenza A virus A/northern shoveler/California/HKWF115/2007 (H6N1))
Assay: microarray, trimeric HA, transfection supernatant
Conditions: remark: other sources report otherwise

First: B7
Second: B8
The Trimeric HA Binding RLU of the first is higher: 2100 RLU for the first, 996 RLU for the second.

B6 gave a Trimeric HA Binding RLU of 43900 RLU.

Biological target: recombinant soluble homotrimeric HA, A/Hong Kong/156/97 (H5N1) (influenza A virus A/Hong Kong/156/97 (H5N1))
Assay: microarray, trimeric HA, transfection supernatant
Conditions: remark: other sources report otherwise

First: B1
Second: B6
The Trimeric HA Binding RLU of the first is lower: 10700 RLU for the first, 36300 RLU for the second.

Biological target: recombinant soluble homotrimeric HA, A/chicken/Vietnam/NCVD-016/08 (H5N1) (influenza A virus A/chicken/Vietnam/NCVD-016/2008 (H5N1))
Assay: microarray, trimeric HA, transfection supernatant
Conditions: remark: other sources report otherwise

First: B1
Second: B7
The Trimeric HA Binding RLU of the first is higher: 4480 RLU for the first, 1060 RLU for the second.

Compared with B8, B9 is higher in Trimeric HA Binding RLU: 1600 RLU for the first, 3070 RLU for the second.

For B6, the Trimeric HA Binding RLU was 34500 RLU.

Biological target: recombinant soluble homotrimeric HA, A/duck/Yangzhou/02/2005 (H8N4) (influenza A virus A/duck/Yangzhou/02/2005 (H8N4))
Assay: microarray, trimeric HA, transfection supernatant
Conditions: remark: other sources report otherwise

Going from B1 to B7, the Trimeric HA Binding RLU falls from 25500 RLU to 5740 RLU.

First: B8
Second: B9
The Trimeric HA Binding RLU of the first is higher: 9450 RLU for the first, 9440 RLU for the second.

With B6 the Trimeric HA Binding RLU was 15900 RLU.

Reference: US20150104459A1
